Reference: publication PMC4027207, “Molecular dissection of the domain architecture and catalytic activities of human PrimPol” (Nucleic Acids Research, 2014)

How the values were obtained:
[1] = target: T1, human PrimPol (wild-type, full-length) (Homo sapiens, UniProt Q96LW4); experiment: gel-based single nucleotide primer extension; assay type: biochemical; conditions: 200 uM dNTP
T1 construct: full length (560 residues), E. coli BL21(pLysS), Ni-NTA, heparin and gel filtration
T1 sequence (Q96LW4 1-560): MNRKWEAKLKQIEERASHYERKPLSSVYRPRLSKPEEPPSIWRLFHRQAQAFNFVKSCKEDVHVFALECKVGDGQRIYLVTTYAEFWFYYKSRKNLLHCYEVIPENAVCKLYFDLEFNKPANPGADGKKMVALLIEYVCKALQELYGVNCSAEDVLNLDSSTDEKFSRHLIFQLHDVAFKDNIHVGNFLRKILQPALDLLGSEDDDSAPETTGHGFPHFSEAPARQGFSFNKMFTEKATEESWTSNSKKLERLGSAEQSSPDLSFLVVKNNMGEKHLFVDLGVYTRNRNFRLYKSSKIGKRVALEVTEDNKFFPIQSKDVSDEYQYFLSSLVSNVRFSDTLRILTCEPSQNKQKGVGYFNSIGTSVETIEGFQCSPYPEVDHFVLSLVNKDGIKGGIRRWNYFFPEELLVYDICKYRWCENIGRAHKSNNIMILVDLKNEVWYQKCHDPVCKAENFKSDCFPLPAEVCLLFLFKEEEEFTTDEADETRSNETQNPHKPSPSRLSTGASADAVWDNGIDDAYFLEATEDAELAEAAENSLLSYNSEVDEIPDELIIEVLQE

PrimPol1–354 = target: T2, PrimPol1–354 (Homo sapiens, UniProt Q96LW4); experiment: gel-based single nucleotide primer extension; assay type: biochemical; conditions: opposite templating cytosines; 200 uM dNTP, 10 mM MgCl2, pH 7.0
T2 construct: gene PRIMPOL; AEP polymerase domain, residues 1-354, lacks zinc finger; E. coli, Ni-NTA
T2 sequence (Q96LW4 1-354): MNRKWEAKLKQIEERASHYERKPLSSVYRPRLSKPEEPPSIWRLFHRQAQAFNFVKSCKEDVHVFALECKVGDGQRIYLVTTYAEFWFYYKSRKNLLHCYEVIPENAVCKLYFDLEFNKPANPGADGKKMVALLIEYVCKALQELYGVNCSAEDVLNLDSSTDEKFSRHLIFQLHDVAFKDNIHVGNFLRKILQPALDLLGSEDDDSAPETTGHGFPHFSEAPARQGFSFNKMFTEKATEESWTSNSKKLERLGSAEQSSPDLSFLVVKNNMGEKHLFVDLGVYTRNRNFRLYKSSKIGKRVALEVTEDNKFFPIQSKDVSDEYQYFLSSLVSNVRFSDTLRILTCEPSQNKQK

[2] = target: T3, PrimPol372-560 (zinc finger domain) (Homo sapiens, UniProt Q96LW4 372-560); experiment: EMSA; 10 mM Mg2+; 40 nM DNA; protein 0.05-20 uM; 10 mM Bis-Tris-Propane-HCl pH 7.0, 10 mM MgCl2, 1 mM DTT, 40 nM DNA, 25°C, 60 min; 5% polyacrylamide gel in 0.5x TBE; conditions: protein: recombinant; tags: His (Ni-NTA purified); label: 5'-Hex
T3 sequence: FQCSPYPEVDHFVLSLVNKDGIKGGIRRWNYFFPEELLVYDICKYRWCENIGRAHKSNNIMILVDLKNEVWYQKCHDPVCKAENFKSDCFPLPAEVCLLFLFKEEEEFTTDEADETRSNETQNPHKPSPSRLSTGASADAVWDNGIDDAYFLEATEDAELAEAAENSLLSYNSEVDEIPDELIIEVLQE

[3] = target: T4, PrimPol1-354 (AEP polymerase domain) (Homo sapiens, UniProt Q96LW4 1-354); experiment: EMSA; 10 mM Mg2+; 40 nM DNA; shift evident at ~0.5 uM protein, complete at 5 uM; 10 mM Bis-Tris-Propane-HCl pH 7.0, 10 mM MgCl2, 1 mM DTT, 40 nM DNA, 25°C, 60 min; 5% polyacrylamide gel in 0.5x TBE; conditions: protein: recombinant, tags: His (Ni-NTA purified)
T4 sequence: T2 sequence (Q96LW4 1-354)

[4] = target: T3, PrimPol372-560 (zinc finger domain); experiment: EMSA; 10 mM Mg2+; 40 nM DNA; no shift, protein 0.05-20 uM; 10 mM Bis-Tris-Propane-HCl pH 7.0, 10 mM MgCl2, 1 mM DTT, 40 nM DNA, 25°C, 60 min; 5% polyacrylamide gel in 0.5x TBE; conditions: protein: recombinant; tags: His (Ni-NTA purified); label: 5'-Hex on strand 1; blunt

Nc1ncnc2c1ncn2[C@H]1C[C@H](O)[C@@H](COP(=O)(O)OP(=O)(O)OP(=O)(O)O)O1 [dATP]
gel-based single nucleotide primer extension ([1]; template-independent extension, 10 mM MgCl2, 1 mM MnCl2, pH 7.0, 37 °C): promiscuous DNA synthesis was most efficient when enzyme was utilising dATP or dTTP

Nc1nc2c(ncn2[C@H]2C[C@H](O)[C@@H](COP(=O)(O)OP(=O)(O)OP(=O)(O)O)O2)c(=O)[nH]1 [dGTP]
gel-based single nucleotide primer extension (PrimPol1–354): All four of these PrimPol constructs inserted two guanine nucleotides opposite two cytosines | gel-based single nucleotide primer extension ([1]; opposite templating cytosines, 10 mM MgCl2, pH 7.0): all incorporated two correct incoming guanine nucleotides opposite the templating cytosines

B1: HP-50 ssDNA (sequence 7) (ssDNA)
DNA: TGTCGTCTGTTCGGTCGTTCGGTCTTCAAGGCTGTTGTGCGCCCTGCGCG
binding result [2]: binds | binding result ([3]; label: 5'-Hex): binds

B2: HP-50/ND-50 dsDNA (sequence 6 annealed to 7) (dsDNA)
DNA 1: B1 DNA
DNA 2: CGCGCAGGGCGCACAACAGCCTTGAAGACCGAACGACCGAACAGACGACA
binding result [4]: no binding | binding result ([3]; label: 5'-Hex on strand 1, blunt): binds
